Laboratory results from publication PMC9261887.

Molecular target: Human angiotensin-converting enzyme 2 ectodomain (amino acids 20-613) with C-terminal E5 coil tag, p (human) (UniProt Q9BYF1)
Experiment: SPR

Human angiotensin-converting enzyme 2 ectodomain (amino acids 20-613) with C-terminal E5 coil tag, p (human), sequence (Q9BYF1 20-613): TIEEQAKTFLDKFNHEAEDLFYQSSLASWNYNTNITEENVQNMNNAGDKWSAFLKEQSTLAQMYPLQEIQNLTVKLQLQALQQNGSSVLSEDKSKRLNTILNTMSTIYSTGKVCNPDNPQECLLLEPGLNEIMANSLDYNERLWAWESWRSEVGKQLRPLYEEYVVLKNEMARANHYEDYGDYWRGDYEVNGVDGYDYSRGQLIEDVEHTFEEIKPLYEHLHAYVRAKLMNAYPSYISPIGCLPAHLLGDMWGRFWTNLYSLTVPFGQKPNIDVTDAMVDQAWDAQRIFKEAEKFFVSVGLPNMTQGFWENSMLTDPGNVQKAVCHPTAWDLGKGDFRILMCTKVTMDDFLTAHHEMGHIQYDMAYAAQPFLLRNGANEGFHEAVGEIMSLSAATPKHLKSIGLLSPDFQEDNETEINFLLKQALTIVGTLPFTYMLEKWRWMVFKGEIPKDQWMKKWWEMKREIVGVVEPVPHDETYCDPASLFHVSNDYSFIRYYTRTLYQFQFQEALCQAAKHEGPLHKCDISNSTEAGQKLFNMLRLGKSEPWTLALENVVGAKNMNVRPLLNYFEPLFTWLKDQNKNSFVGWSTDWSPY

Substance	dH [kcal/mol]
SARS-CoV-2 spike protein receptor binding domain (RBD 319-541), Alpha B.1.1.7 (from UniProt P0DTC2 319-541) (domain or fragment)	-17.4
SARS-CoV-2 spike protein receptor binding domain (RBD 319-541), Beta B.1.351 (from UniProt P0DTC2 319-541) (domain or fragment)	-15.3
SARS-CoV-2 spike protein receptor binding domain (RBD 319-541), Delta B.1.617.2 (from UniProt P0DTC2 319-541) (domain or fragment)	-10.9
SARS-CoV-2 spike protein receptor binding domain (RBD 319-541), Kappa B.1.617.1 (from UniProt P0DTC2 319-541) (domain or fragment)	-9.56
SARS-CoV-2 spike protein receptor binding domain (RBD 319-541), Omicron B.1.1.529 (from UniProt P0DTC2 319-541) (domain or fragment)	-17
